The results in this text go back to patent publication US20250255960A1 (HRAIN BIOTECHNOLOGY, published 2025).

The target of test [1] is T1, Fc-labeled CD70 antigen.
T1 construct: soluble antigen used at 1:100 to stain CAR-T cells; also called detected with the secondary antibody PE-Fc (axis label PE-Fc)
T1 sequence (P32970 whole entry, species assumed, looked up): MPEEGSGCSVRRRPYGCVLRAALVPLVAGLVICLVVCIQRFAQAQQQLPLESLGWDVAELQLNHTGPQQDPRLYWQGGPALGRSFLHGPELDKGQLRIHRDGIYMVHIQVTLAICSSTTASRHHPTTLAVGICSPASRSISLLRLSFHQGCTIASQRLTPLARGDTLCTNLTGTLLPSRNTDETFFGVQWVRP
The test can be described thus: flow cytometry: CAR-transduced T cells stained with Fc-labeled CD70 antigen (1:100) and secondary antibody PE-Fc; NT control 0.61. The procedure:
The CAR positive rate of the retrovirus-infected T lymphocytes were detected 72 hours after virus infection. For the chimeric antigen receptor group containing CD70-2A5-BBz, CD70-5C10-BBz, CD70-8A6-BBz, CD70-8B4-BBz, CD70-8E1-BBz, CD70-8F9-BBz, CD70-9D8-BBz, CD70-11C9-BBz and ARGX-BBz clone and the negative uninfected control group NT, 1×10⁶ cells from the above two groups respectively, were taken and centrifuged to remove the medium, the cells were washed once with PBS, and resuspended in 100 μL of the flow loading tube (BD). Fc-labeled CD70 antigen (1:100) was added and incubated for 30 minutes at 4° C. After washing the cells once with PBS, the secondary antibody PE-Fc was added according to the recommended ratio and incubated for 30 minutes in the dark. After the cells were washed once with PBS, the cells were resuspended in 200 μL of PBS and tested on the machine. The results of flow cytometric analysis of CAR-T positive rate are shown by FIG. 11.
A general note: Flow cytometry measures light scatter and fluorescence of single cells or particles in a stream.

The target in test [2] is T1, Fc-labeled CD70 antigen. The experiment in a line: flow cytometry: CAR-transduced T cells stained with Fc-labeled CD70 antigen (1:100) and secondary antibody PE-Fc; NT control 0.79. The procedure:
The CAR positive rate of the retrovirus-infected T lymphocytes was detected 72 hours after virus infection. For the chimeric antigen receptor group containing CD70-2A5-BBz, CD70-8B4-BBz, CD70-9D8-BBz, CD70-11C9-BBz and ARGX-BBz clones and the negative uninfected control NT, 1×10⁶ cells from the above two groups respectively, were taken and centrifuged to remove the medium, washed once with PBS, and resuspended in 100 μL in a flow loading tube (BD). Fc-labeled CD70 antigen (1:100) was added and incubated for 30 minutes at 4° C. After washing the cells once with PBS, the secondary antibody PE-Fc was added according to the recommended ratio and incubated for 30 minutes in the dark. After the cells were washed once with PBS, the cells were resuspended in 200 μL of PBS and tested on the machine. The results of flow cytometric analysis of CAR-T positive rate are shown by FIG. 16.

The next test concerns the target T2, CD70-11C9 VHH-huIgG1-Fc (human, UniProt P01857-1 104-330 = IgG part).
T2 construct: domain: IgG1-Fc; Recombinant VHH-huIgG1-Fc made in 293F cells; also called VHH-huFc antibody CD70-11C9
The experiment in a line: BLI (Octet K2); biotinylated CD70 on SA probe, VHH-huFc as analyte at 200, 100, 50, 25 nM. On the procedure:
(§1) The affinity of four VHH-huFc antibodies CD70-2A5, CD70-8B4, CD70-9D8, and CD70-11C9 to human CD70 was analyzed by Octet K2 molecular interaction analyzer. The SA probe was immobilized with 200 μL 100 nM biotinylated recombinant human CD70 protein at a height of […]. […] The results are shown by FIG. 8 and Table 4.

In another test the target is T3, CD70-9D8 VHH-huIgG1-Fc (human, UniProt P01857-1 104-330 = IgG part, limits assumed).
T3 construct: domain: IgG1-Fc; Recombinant VHH-huIgG1-Fc made in 293F cells; also called VHH-huFc antibody CD70-9D8
The test is described as above. The procedure:
as §1

The next test addresses T4, CD70-2A5 VHH-huIgG1-Fc (human, UniProt P01857-1 104-330 = IgG part, limits assumed).
T4 construct: domain: IgG1-Fc; Recombinant VHH-huIgG1-Fc made in 293F cells; also called VHH-huFc antibody CD70-2A5
The description is as above. The procedure: as §1

The target in a further test is T5, CD70-8B4 VHH-huIgG1-Fc (human, UniProt P01857-1 104-330 = IgG part, limits assumed).
T5 construct: domain: IgG1-Fc; Recombinant VHH-huIgG1-Fc made in 293F cells; also called VHH-huFc antibody CD70-8B4
Described as above. The procedure: as §1

B1: 2A5-BBz (other)
chimeric antigen receptor chain: EVQLVESGGGLVQAGGSLRLSCAASGSIFSINAMGWYRQAPGKQRELVAAITSGGSTNYADSVKGRFTISRDNAKNTVYLQMNSLKPEDTAVYYCNAGAGRAFPGDYWGQGTQVTVSSTTTPAPRPPTPAPTIASQPLSLRPEACRPAAGGAVHTRGLDFACDIYIWAPLAGTCGVLLLSLVITLYCRFSVVKRGRKKLLYIFKQPFMRPVQTTQEEDGCSCRFPEEEEGGCELRVKFSRSADAPAYQQGQNQLYNELNLGRREEYDVLDKRRGRDPEMGGKPRRKNPQEGLYNELQKDKMAEAYSEIGMKGERRRGKGHDGLYQGLSTATKDTYDALHMQALPPR
notes: also called CD70-2A5-BBz
Turning to B1, the “CD70 CAR+ (positive rate of the cells)” value in the test with Fc-labeled CD70 antigen [1] worked out at 75.8%; with Fc-labeled CD70 antigen [2] it was 82.4%.

B2: 5C10-BBz (other)
chimeric antigen receptor chain: QVQLVESGGGLVQAGGSLRLSCAASGSIFSMNAMGWYRQAPGKQRELVAAITSGGSTNYVDSVKGRFTISRDNAKNTVYLQMNSLKPEDTAVYYCNAGAGRAFPGDYWGQGTQVTVSSTTTPAPRPPTPAPTIASQPLSLRPEACRPAAGGAVHTRGLDFACDIYIWAPLAGTCGVLLLSLVITLYCRFSVVKRGRKKLLYIFKQPFMRPVQTTQEEDGCSCRFPEEEEGGCELRVKFSRSADAPAYQQGQNQLYNELNLGRREEYDVLDKRRGRDPEMGGKPRRKNPQEGLYNELQKDKMAEAYSEIGMKGERRRGKGHDGLYQGLSTATKDTYDALHMQALPPR
notes: also called CD70-5C10-BBz
Turning to B2, the “CD70 CAR+ (positive rate of the cells)” value with Fc-labeled CD70 antigen [1] was 60%.

B3: biotinylated recombinant human CD70 protein (ligand, UniProt P32970 39-193, looked up)
chain: QRFAQAQQQLPLESLGWDVAELQLNHTGPQQDPRLYWQGGPALGRSFLHGPELDKGQLRIHRDGIYMVHIQVTLAICSSTTASRHHPTTLAVGICSPASRSISLLRLSFHQGCTIASQRLTPLARGDTLCTNLTGTLLPSRNTDETFFGVQWVRP
modifications: biotin on the avi-tag
notes: also called biotinylated CD70 protein; biotinylated CD70 recombinant protein; not shown: avi-tag (and any other tag or Fc)
One may read the Kd as the concentration at which binding is half-saturated. Broadly, the koff is the rate constant with which the complex falls apart. In general, kon refers to a measure of how fast the partners come together. A lower kon goes with slow association. As to B3, the Kd is < 1 pM with CD70-11C9 VHH-huIgG1-Fc, 1830 pM with CD70-9D8 VHH-huIgG1-Fc, < 1 pM with CD70-2A5 VHH-huIgG1-Fc and < 1 pM in the test with CD70-8B4 VHH-huIgG1-Fc. Further, the koff was < 1e-07 s⁻¹ with CD70-11C9 VHH-huIgG1-Fc, 0.000235 s⁻¹ with CD70-9D8 VHH-huIgG1-Fc, < 1e-07 s⁻¹ with CD70-2A5 VHH-huIgG1-Fc and < 1e-07 s⁻¹ with CD70-8B4 VHH-huIgG1-Fc. Also, the kon in the test with CD70-11C9 VHH-huIgG1-Fc is 264000 M⁻¹ s⁻¹; with CD70-9D8 VHH-huIgG1-Fc, 129000 M⁻¹ s⁻¹; in the test with CD70-2A5 VHH-huIgG1-Fc, 36700 M⁻¹ s⁻¹; with CD70-8B4 VHH-huIgG1-Fc, 45500 M⁻¹ s⁻¹.

B4: 8B4-BBz (other)
chimeric antigen receptor chain: EVQLVESGGGFVQPGGSLRLSCAASGFTLDGYAVAWFRQAPGKEREGVSCISSSDGSTYYIDSVQGRFTITRNNAKNTVYLQMNSLKPEDTAVYYCTTDVLTSCRSDRWLEVWGQGTLVTVSSTTTPAPRPPTPAPTIASQPLSLRPEACRPAAGGAVHTRGLDFACDIYIWAPLAGTCGVLLLSLVITLYCRFSVVKRGRKKLLYIFKQPFMRPVQTTQEEDGCSCRFPEEEEGGCELRVKFSRSADAPAYQQGQNQLYNELNLGRREEYDVLDKRRGRDPEMGGKPRRKNPQEGLYNELQKDKMAEAYSEIGMKGERRRGKGHDGLYQGLSTATKDTYDALHMQALPPR
notes: also called CD70-8B4-BBz
As to B4, the “CD70 CAR+ (positive rate of the cells)” value with Fc-labeled CD70 antigen [1] turned out to be 72.1%; with Fc-labeled CD70 antigen [2], 78.3%.

B5: 11C9-BBz (other)
chimeric antigen receptor chain: QVQLVESGGGLVQPGGSLRLSCAASGFTLDYYAVGWFRQAPGKEREGVSCISSSSDGSTYYVDSVLGRFTISRNNAENTVYLQMNSLKPEDTAVYYCSTDVLTSCRSDRYLEVWGQGTLVTVSGTTTPAPRPPTPAPTIASQPLSLRPEACRPAAGGAVHTRGLDFACDIYIWAPLAGTCGVLLLSLVITLYCRFSVVKRGRKKLLYIFKQPFMRPVQTTQEEDGCSCRFPEEEEGGCELRVKFSRSADAPAYQQGQNQLYNELNLGRREEYDVLDKRRGRDPEMGGKPRRKNPQEGLYNELQKDKMAEAYSEIGMKGERRRGKGHDGLYQGLSTATKDTYDALHMQALPPR
notes: also called CD70-11C9-BBz
Consider B5, for which the “CD70 CAR+ (positive rate of the cells)” value with Fc-labeled CD70 antigen [1] was 51.3%; with Fc-labeled CD70 antigen [2], 70.9%.

B6: 9D8-BBz (other)
chimeric antigen receptor chain: QLQLVESGGGLVQPGGSLRLSCAVSGRTSSTYAMAWFRQAPGKEREIVAVITWSGGRTAYADSVKGRFTIAKDSAKNTVYLQMNSLKPEDTAVYYCAADSEVSSSSEGQYGYESWGQGTQVTVSSTTTPAPRPPTPAPTIASQPLSLRPEACRPAAGGAVHTRGLDFACDIYIWAPLAGTCGVLLLSLVITLYCRFSVVKRGRKKLLYIFKQPFMRPVQTTQEEDGCSCRFPEEEEGGCELRVKFSRSADAPAYQQGQNQLYNELNLGRREEYDVLDKRRGRDPEMGGKPRRKNPQEGLYNELQKDKMAEAYSEIGMKGERRRGKGHDGLYQGLSTATKDTYDALHMQALPPR
notes: also called CD70-9D8-BBz
As to B6, the entries for the “CD70 CAR+ (positive rate of the cells)” value with Fc-labeled CD70 antigen [1] and with Fc-labeled CD70 antigen [2] were 74.1% and 83%, respectively.

B7: 8F9-BBz (other)
chimeric antigen receptor chain: QLQLVESGGGLVQAGGSLRLSCAVSGRTSSTYAMAWFRQAPGKEREIVAVIGWSGGRTAYADSVKGRFTIAKDNAKNTVSLQMNSLKPEDTGVYYCAADSEQSSSSEGQAYGYEDWGQGTLVTVSSTTTPAPRPPTPAPTIASQPLSLRPEACRPAAGGAVHTRGLDFACDIYIWAPLAGTCGVLLLSLVITLYCRFSVVKRGRKKLLYIFKQPFMRPVQTTQEEDGCSCRFPEEEEGGCELRVKFSRSADAPAYQQGQNQLYNELNLGRREEYDVLDKRRGRDPEMGGKPRRKNPQEGLYNELQKDKMAEAYSEIGMKGERRRGKGHDGLYQGLSTATKDTYDALHMQALPPR
notes: also called CD70-8F9-BBz
In the case of B7, the “CD70 CAR+ (positive rate of the cells)” value with Fc-labeled CD70 antigen [1] stood at 72.7%.
